Our source for the stoichiometry N values is article PMC8085985.

The target of the experiment is Fervidobacterium islandicum AW‐1 SufS family cysteine desulfurase (FiSufS) (Fervidobacterium islandicum AW-1). As to the kind of experiment: SEC. For orientation: SEC sorts molecules by how far they enter the pores of the column.

As a reminder, the stoichiometry N is the number of molecules, sites or subunits per partner or assembly. For the substance “Fervidobacterium islandicum AW‐1 SufS family cysteine desulfurase (FiSufS) (enzyme)”, the stoichiometry N worked out at 2.
